Test results as given in patent US20260049140A1 (JANUX THERAPEUTICS, published 2026).
Ends that are not written are not given here.

T1: human TROP2-biotin (human, UniProt P09758 27-274, limits assumed, biotinylated (site not stated))
T1 construct: also called hTROP2-Biotin; Biotinylated TROP2
T1 sequence (looked up): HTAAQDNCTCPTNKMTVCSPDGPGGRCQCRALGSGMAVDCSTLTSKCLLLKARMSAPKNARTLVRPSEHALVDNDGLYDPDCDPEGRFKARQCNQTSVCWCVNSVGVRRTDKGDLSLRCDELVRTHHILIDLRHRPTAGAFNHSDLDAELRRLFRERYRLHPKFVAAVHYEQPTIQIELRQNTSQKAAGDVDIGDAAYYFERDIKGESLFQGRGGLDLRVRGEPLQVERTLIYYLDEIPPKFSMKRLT

T2: Cyno CD3 (Antigen was biotinylated for capture on the plate (per card); site of biotin and any vendor tag not stated in the passages seen.)
T2 construct: also called cynomolgus CD3
T2 chain: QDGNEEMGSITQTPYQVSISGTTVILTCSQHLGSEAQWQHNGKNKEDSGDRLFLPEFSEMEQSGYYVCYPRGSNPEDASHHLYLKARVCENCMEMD


What was measured:
TCE-19 = target: T3, TCE-19; assay: competition ELISA, peptide titrated vs TCE binding to captured CD3
T3 construct: anti-CD3 scFv W233A; anti-TROP2 Fab wt; also called 3091

TCE-1 = target: T4, TCE-1; assay: competition ELISA: peptide titrated and pre-incubated with a constant concentration of TCE-1; TCE-1 bound to plate-captured biotinylated CD3 is detected (blocked ligand: CD3)
T4 construct: anti-CD3 scFv wt fused to anti-TROP2 Fab HC wt

human CD3ε-biotin [1] = target: T5, human CD3ε-biotin (human, UniProt P07766 23-126, limits assumed, biotinylated (site not stated)); assay: BLI (Octet), human CD3ε-biotin 10 nM on sensor, 50 nM TCE
T5 construct: also called CD3E-bio; CD3E-biotin

human TROP2-biotin = target: T1, human TROP2-biotin; assay: ELISA, biotinylated TROP2 captured on neutravidin plate, TCE titrated
Cyno CD3 = target: T2, Cyno CD3; assay: Cyno CD3 binding ELISA, TCE titrated
human CD3ε-biotin [2] = target: T5, human CD3ε-biotin; assay: BLI (Octet), summary table
TCE-15 = target: T6, TCE-15; assay: competition ELISA, peptide titrated vs TCE binding to captured CD3
T6 construct: anti-CD3 scFv W112A; anti-TROP2 Fab wt; also called 3087

Response (human CD3ε-biotin [1]) | Kd (human CD3ε-biotin [1]) [nM] | CD3 t1/2 (human CD3ε-biotin [2]) [min] | Kd (human CD3ε-biotin [2]) [nM] | CD3 Octet response (human CD3ε-biotin [2]) | Binder | further results
0.931 | 9.11 |  |  |  | TCE-28 (anti-CD3 scFv N30Q, I109V, G172A, V231A; anti-TROP2 HC wt) (bispecific antibody, scFv-Fab; the entry already carries the mutations; also called 3100) light: DIQLTQSPSSLSASVGDRVSITCKASQDVSIAVAWYQQKPGKAPKLLIYSASYRYTGVPDRFSGSGSGTDFTLTISSLQPEDFAVYYCQQHYITPLTFGAGTKVEIKRTVAAPSVFIFPPSDEQLKSGTASVVCLLNNFYPREAKVQWKVDNALQSGNSQESVTEQDSKDSTYSLSSTLTLSKADYEKHKVYACEVTHQGLSSPVTKSFNRGEC heavy: not shown | 
0.682 | 3.41 |  | 3.41 | 0.68 | TCE-21 (anti-CD3 scFv S235A; anti-TROP2 HC wt) (bispecific antibody, scFv-Fab; the entry already carries the mutation) light: DIQLTQSPSSLSASVGDRVSITCKASQDVSIAVAWYQQKPGKAPKLLIYSASYRYTGVPDRFSGSGSGTDFTLTISSLQPEDFAVYYCQQHYITPLTFGAGTKVEIKRTVAAPSVFIFPPSDEQLKSGTASVVCLLNNFYPREAKVQWKVDNALQSGNSQESVTEQDSKDSTYSLSSTLTLSKADYEKHKVYACEVTHQGLSSPVTKSFNRGEC heavy: not shown | 
0.728 | 6.51 | 2.67 | 6.51 | 0.73 | TCE-23 (anti-CD3 scFv R237A; anti-TROP2 HC wt) (bispecific antibody, scFv-Fab; the entry already carries the mutation) light: DIQLTQSPSSLSASVGDRVSITCKASQDVSIAVAWYQQKPGKAPKLLIYSASYRYTGVPDRFSGSGSGTDFTLTISSLQPEDFAVYYCQQHYITPLTFGAGTKVEIKRTVAAPSVFIFPPSDEQLKSGTASVVCLLNNFYPREAKVQWKVDNALQSGNSQESVTEQDSKDSTYSLSSTLTLSKADYEKHKVYACEVTHQGLSSPVTKSFNRGEC heavy: not shown | 
0.742 |  | 4.26 |  | 0.74 | TCE-25 (anti-CD3 scFv V239A; anti-TROP2 HC wt) (bispecific antibody, scFv-Fab; the entry already carries the mutation) light: DIQLTQSPSSLSASVGDRVSITCKASQDVSIAVAWYQQKPGKAPKLLIYSASYRYTGVPDRFSGSGSGTDFTLTISSLQPEDFAVYYCQQHYITPLTFGAGTKVEIKRTVAAPSVFIFPPSDEQLKSGTASVVCLLNNFYPREAKVQWKVDNALQSGNSQESVTEQDSKDSTYSLSSTLTLSKADYEKHKVYACEVTHQGLSSPVTKSFNRGEC heavy: not shown | 
0.65 |  | 2.45 |  | 0.65 | TCE-22 (anti-CD3 scFv N236A; anti-TROP2 HC wt) (bispecific antibody, scFv-Fab; the entry already carries the mutation) light: DIQLTQSPSSLSASVGDRVSITCKASQDVSIAVAWYQQKPGKAPKLLIYSASYRYTGVPDRFSGSGSGTDFTLTISSLQPEDFAVYYCQQHYITPLTFGAGTKVEIKRTVAAPSVFIFPPSDEQLKSGTASVVCLLNNFYPREAKVQWKVDNALQSGNSQESVTEQDSKDSTYSLSSTLTLSKADYEKHKVYACEVTHQGLSSPVTKSFNRGEC heavy: not shown | 
0.0683 | 31 |  | 31 | 0.07 | TCE-24 (anti-CD3 scFv W238A; anti-TROP2 HC wt) (bispecific antibody, scFv-Fab; the entry already carries the mutation; also called 3096) light: DIQLTQSPSSLSASVGDRVSITCKASQDVSIAVAWYQQKPGKAPKLLIYSASYRYTGVPDRFSGSGSGTDFTLTISSLQPEDFAVYYCQQHYITPLTFGAGTKVEIKRTVAAPSVFIFPPSDEQLKSGTASVVCLLNNFYPREAKVQWKVDNALQSGNSQESVTEQDSKDSTYSLSSTLTLSKADYEKHKVYACEVTHQGLSSPVTKSFNRGEC heavy: not shown | 

More lines, now with the values behind:

Binder | Response (human CD3ε-biotin [1]) | Kd (human CD3ε-biotin [1]) [nM] | CD3 t1/2 (human CD3ε-biotin [2]) [min] | Kd (human CD3ε-biotin [2]) [nM] | CD3 Octet response (human CD3ε-biotin [2]) | further results
VYCGPEFDESVGCM (cysteine pairing not given here; also: biotinylated when captured in ELISA, also called 1443) [Peptide-3] |  |  |  |  |  | IC50 (TCE-19): > 100000 nM
AYCGPEFDESVGCM (cysteine pairing not given here; also: biotinylated when captured in binding ELISA, also called 1555) [Peptide-8] |  |  |  |  |  | IC50 (TCE-19): > 100000 nM; IC50 (read off the curve) (TCE-1): ~400 nM
VYCGPEFDESVGCA (cysteine pairing not given here; also: biotinylated when captured in binding ELISA, also called 1566) [Peptide-9] |  |  |  |  |  | IC50 (TCE-19): > 100000 nM
TCE-14 (anti-CD3 scFv Y111A; anti-TROP2 HC wt) (bispecific antibody, scFv-Fab; the entry already carries the mutation; also called 3086) light: DIQLTQSPSSLSASVGDRVSITCKASQDVSIAVAWYQQKPGKAPKLLIYSASYRYTGVPDRFSGSGSGTDFTLTISSLQPEDFAVYYCQQHYITPLTFGAGTKVEIKRTVAAPSVFIFPPSDEQLKSGTASVVCLLNNFYPREAKVQWKVDNALQSGNSQESVTEQDSKDSTYSLSSTLTLSKADYEKHKVYACEVTHQGLSSPVTKSFNRGEC heavy: not shown | -0.0009 |  |  |  |  | 
TCE-29 (anti-CD3 scFv wt; anti-TROP2 (F108A) HC) (bispecific antibody, scFv-Fab; the entry already carries the mutation) light: DIQLTQSPSSLSASVGDRVSITCKASQDVSIAVAWYQQKPGKAPKLLIYSASYRYTGVPDRFSGSGSGTDFTLTISSLQPEDFAVYYCQQHYITPLTFGAGTKVEIKRTVAAPSVFIFPPSDEQLKSGTASVVCLLNNFYPREAKVQWKVDNALQSGNSQESVTEQDSKDSTYSLSSTLTLSKADYEKHKVYACEVTHQGLSSPVTKSFNRGEC heavy: not shown |  |  |  |  |  | EC50 (human TROP2-biotin): 1.15 nM; EC50 (Cyno CD3): 0.184 nM
TCE-17 (anti-CD3 scFv V231A; anti-TROP2 HC wt) (bispecific antibody, scFv-Fab; the entry already carries the mutation) light: DIQLTQSPSSLSASVGDRVSITCKASQDVSIAVAWYQQKPGKAPKLLIYSASYRYTGVPDRFSGSGSGTDFTLTISSLQPEDFAVYYCQQHYITPLTFGAGTKVEIKRTVAAPSVFIFPPSDEQLKSGTASVVCLLNNFYPREAKVQWKVDNALQSGNSQESVTEQDSKDSTYSLSSTLTLSKADYEKHKVYACEVTHQGLSSPVTKSFNRGEC heavy: not shown |  | 6.26 | 2.96 | 6.26 |  | 
TCE-35 (anti-CD3 scFv wt; anti-TROP2 (D109A) HC) (bispecific antibody, scFv-Fab; the entry already carries the mutation) light: DIQLTQSPSSLSASVGDRVSITCKASQDVSIAVAWYQQKPGKAPKLLIYSASYRYTGVPDRFSGSGSGTDFTLTISSLQPEDFAVYYCQQHYITPLTFGAGTKVEIKRTVAAPSVFIFPPSDEQLKSGTASVVCLLNNFYPREAKVQWKVDNALQSGNSQESVTEQDSKDSTYSLSSTLTLSKADYEKHKVYACEVTHQGLSSPVTKSFNRGEC heavy: not shown |  |  |  |  |  | EC50 (human TROP2-biotin): 1.07 nM
TCE-30 (anti-CD3 scFv H101A; anti-TROP2 (F108A) HC) (bispecific antibody, scFv-Fab; the entry already carries the mutations) light: DIQLTQSPSSLSASVGDRVSITCKASQDVSIAVAWYQQKPGKAPKLLIYSASYRYTGVPDRFSGSGSGTDFTLTISSLQPEDFAVYYCQQHYITPLTFGAGTKVEIKRTVAAPSVFIFPPSDEQLKSGTASVVCLLNNFYPREAKVQWKVDNALQSGNSQESVTEQDSKDSTYSLSSTLTLSKADYEKHKVYACEVTHQGLSSPVTKSFNRGEC heavy: not shown |  |  |  |  |  | EC50 (human TROP2-biotin): 1.28 nM
TCE-18 (anti-CD3 scFv L232A; anti-TROP2 HC wt) (bispecific antibody, scFv-Fab; the entry already carries the mutation) light: DIQLTQSPSSLSASVGDRVSITCKASQDVSIAVAWYQQKPGKAPKLLIYSASYRYTGVPDRFSGSGSGTDFTLTISSLQPEDFAVYYCQQHYITPLTFGAGTKVEIKRTVAAPSVFIFPPSDEQLKSGTASVVCLLNNFYPREAKVQWKVDNALQSGNSQESVTEQDSKDSTYSLSSTLTLSKADYEKHKVYACEVTHQGLSSPVTKSFNRGEC heavy: not shown | 0.663 | 8.39 | 2.64 | 8.39 | 0.66 | 
TCE-20 (anti-CD3 scFv Y234A; anti-TROP2 HC wt) (bispecific antibody, scFv-Fab; the entry already carries the mutation) light: DIQLTQSPSSLSASVGDRVSITCKASQDVSIAVAWYQQKPGKAPKLLIYSASYRYTGVPDRFSGSGSGTDFTLTISSLQPEDFAVYYCQQHYITPLTFGAGTKVEIKRTVAAPSVFIFPPSDEQLKSGTASVVCLLNNFYPREAKVQWKVDNALQSGNSQESVTEQDSKDSTYSLSSTLTLSKADYEKHKVYACEVTHQGLSSPVTKSFNRGEC heavy: not shown | 0.674 | 11.1 | 1.66 | 11.1 | 0.67 | 
TCE-19 (anti-CD3 scFv W233A; anti-TROP2 HC wt) (bispecific antibody, scFv-Fab; the entry already carries the mutation; also called 3091) light: DIQLTQSPSSLSASVGDRVSITCKASQDVSIAVAWYQQKPGKAPKLLIYSASYRYTGVPDRFSGSGSGTDFTLTISSLQPEDFAVYYCQQHYITPLTFGAGTKVEIKRTVAAPSVFIFPPSDEQLKSGTASVVCLLNNFYPREAKVQWKVDNALQSGNSQESVTEQDSKDSTYSLSSTLTLSKADYEKHKVYACEVTHQGLSSPVTKSFNRGEC heavy: not shown | 0.414 | 12.3 | 6.45 | 12.3 |  | 
GSQCLGPEWEVCPY (cysteine pairing not given here; also: biotinylated when captured in ELISA, also called 1419) [Peptide-2] |  |  |  |  |  | IC50 (TCE-15): > 100000 nM; IC50 (TCE-19): > 100000 nM; IC50 (read off the curve) (TCE-1): ~300 nM
ASQCLGPEWEVCPY (cysteine pairing not given here; also: biotinylated when captured in ELISA, also called 1594) [Peptide-10] |  |  |  |  |  | IC50 (TCE-19): > 100000 nM; IC50 (read off the curve) (TCE-1): ~200 nM
